In article PMC8643664:

B1: FLAG-ORC1 (325–511) (domain or fragment)
chain: SKTIDIREERTLTPISGGQRSSVVPSVILKPENIKKRDAKEAKAQNEATSTPHRIRRKSSVLTMNRIRQQLRFLGNSKSDQEEKEILPAAEISDSSSDEEEASTPPLPRRAPRTVSRNLRSSLKSSLHTLTKVPKKSLKPRTPRCAAPQIRSRSLAAQEPASVLEEARLRLHVSAVPESLPCREQEF
B2: FLAG-ORC1 (244–511) (domain or fragment)
chain: NPQMSQQTSCASLDSPGRIKRKVAFSEITSPSKRSQPDKLQTLSPALKAPEKTRETGLSYTEDDKKASPEHRIILRTRIAASKTIDIREERTLTPISGGQRSSVVPSVILKPENIKKRDAKEAKAQNEATSTPHRIRRKSSVLTMNRIRQQLRFLGNSKSDQEEKEILPAAEISDSSSDEEEASTPPLPRRAPRTVSRNLRSSLKSSLHTLTKVPKKSLKPRTPRCAAPQIRSRSLAAQEPASVLEEARLRLHVSAVPESLPCREQEF
B3: FLAG-ORC1 (2–511) (domain or fragment)
chain: AHYPTRLKTRKTYSWVGRPLLDRKLHYQTYREMCVKTEGCSTEIHIQIGQFVLIEGDDDENPYVAKLLELFEDDSDPPPKKRARVQWFVRFCEVPACKRHLLGRKPGAQEIFWYDYPACDSNINAETIIGLVRVIPLAPKDVVPTNLKNEKTLFVKLSWNEKKFRPLSSELFAELNKPQESAAKCQKPVRAKSKSAESPSWTPAEHVAKRIESRHSASKSRQTPTHPLTPRARKRLELGNLGNPQMSQQTSCASLDSPGRIKRKVAFSEITSPSKRSQPDKLQTLSPALKAPEKTRETGLSYTEDDKKASPEHRIILRTRIAASKTIDIREERTLTPISGGQRSSVVPSVILKPENIKKRDAKEAKAQNEATSTPHRIRRKSSVLTMNRIRQQLRFLGNSKSDQEEKEILPAAEISDSSSDEEEASTPPLPRRAPRTVSRNLRSSLKSSLHTLTKVPKKSLKPRTPRCAAPQIRSRSLAAQEPASVLEEARLRLHVSAVPESLPCREQEF
B4: FLAG-ORC1 (full-length) (natural protein)
chain: MAHYPTRLKTRKTYSWVGRPLLDRKLHYQTYREMCVKTEGCSTEIHIQIGQFVLIEGDDDENPYVAKLLELFEDDSDPPPKKRARVQWFVRFCEVPACKRHLLGRKPGAQEIFWYDYPACDSNINAETIIGLVRVIPLAPKDVVPTNLKNEKTLFVKLSWNEKKFRPLSSELFAELNKPQESAAKCQKPVRAKSKSAESPSWTPAEHVAKRIESRHSASKSRQTPTHPLTPRARKRLELGNLGNPQMSQQTSCASLDSPGRIKRKVAFSEITSPSKRSQPDKLQTLSPALKAPEKTRETGLSYTEDDKKASPEHRIILRTRIAASKTIDIREERTLTPISGGQRSSVVPSVILKPENIKKRDAKEAKAQNEATSTPHRIRRKSSVLTMNRIRQQLRFLGNSKSDQEEKEILPAAEISDSSSDEEEASTPPLPRRAPRTVSRNLRSSLKSSLHTLTKVPKKSLKPRTPRCAAPQIRSRSLAAQEPASVLEEARLRLHVSAVPESLPCREQEFQDIYNFVESKLLDHTGGCMYISGVPGTGKTATVHEVIRCLQQAAQANDVPPFQYIEVNGMKLTEPHQVYVQILQKLTGQKATANHAAELLAKQFCTRGSPQETTVLLVDELDLLWTHKQDIMYNLFDWPTHKEARLVVLAIANTMDLPERIMMNRVSSRLGLTRMCFQPYTYSQLQQILRSRLKHLKAFEDDAIQLVARKVAALSGDARRCLDICRRATEICEFSQQKPDSPGLVTIAHSMEAVDEMFSSSYITAIKNSSVLEQSFLRAILAEFRRSGLEEATFQQIYSQHVALCRMEGLPYPTMSETMAVCSHLGSCRLLLVEPSRNDLLLRVRLNVSQDDVLYALKDE

target: TRF2 (45–244)-LacI; test: lacO-LacI protein tethering assay

| Binder | co-localization frequency |
| --- | --- |
| B1 | 46% |
| B2 | 90% |
| B3 | 73% |
| B4 | 26% |
